In assay [1] the target is N-type VGCCs controlling excitatory synaptic transmission between primary afferents and dorsal horn (rat) (UniProt Q02294). The experiment in a line: cell-based or functional assay.
The target in assay [2] is N-type VGCCs in rat brain membranes (rat) (UniProt Q02294). Description: displacement of 125I-GVIA from rat brain membranes.
Assay [3] deals with N-type VGCCs controlling excitatory synaptic transmission between primary afferents and dorsal horn (rat), Q02294. The experiment in a line: cell-based or functional assay.
The target of assay [4] is N-type VGCCs in rat brain membranes (rat), Q02294. Description: displacement of 125I-GVIA from rat brain membranes.

This note sets out measurements from US20120329717A1.

N-type VGCCs in rat brain membranes (rat), Q02294, sequence (Q02294 whole entry): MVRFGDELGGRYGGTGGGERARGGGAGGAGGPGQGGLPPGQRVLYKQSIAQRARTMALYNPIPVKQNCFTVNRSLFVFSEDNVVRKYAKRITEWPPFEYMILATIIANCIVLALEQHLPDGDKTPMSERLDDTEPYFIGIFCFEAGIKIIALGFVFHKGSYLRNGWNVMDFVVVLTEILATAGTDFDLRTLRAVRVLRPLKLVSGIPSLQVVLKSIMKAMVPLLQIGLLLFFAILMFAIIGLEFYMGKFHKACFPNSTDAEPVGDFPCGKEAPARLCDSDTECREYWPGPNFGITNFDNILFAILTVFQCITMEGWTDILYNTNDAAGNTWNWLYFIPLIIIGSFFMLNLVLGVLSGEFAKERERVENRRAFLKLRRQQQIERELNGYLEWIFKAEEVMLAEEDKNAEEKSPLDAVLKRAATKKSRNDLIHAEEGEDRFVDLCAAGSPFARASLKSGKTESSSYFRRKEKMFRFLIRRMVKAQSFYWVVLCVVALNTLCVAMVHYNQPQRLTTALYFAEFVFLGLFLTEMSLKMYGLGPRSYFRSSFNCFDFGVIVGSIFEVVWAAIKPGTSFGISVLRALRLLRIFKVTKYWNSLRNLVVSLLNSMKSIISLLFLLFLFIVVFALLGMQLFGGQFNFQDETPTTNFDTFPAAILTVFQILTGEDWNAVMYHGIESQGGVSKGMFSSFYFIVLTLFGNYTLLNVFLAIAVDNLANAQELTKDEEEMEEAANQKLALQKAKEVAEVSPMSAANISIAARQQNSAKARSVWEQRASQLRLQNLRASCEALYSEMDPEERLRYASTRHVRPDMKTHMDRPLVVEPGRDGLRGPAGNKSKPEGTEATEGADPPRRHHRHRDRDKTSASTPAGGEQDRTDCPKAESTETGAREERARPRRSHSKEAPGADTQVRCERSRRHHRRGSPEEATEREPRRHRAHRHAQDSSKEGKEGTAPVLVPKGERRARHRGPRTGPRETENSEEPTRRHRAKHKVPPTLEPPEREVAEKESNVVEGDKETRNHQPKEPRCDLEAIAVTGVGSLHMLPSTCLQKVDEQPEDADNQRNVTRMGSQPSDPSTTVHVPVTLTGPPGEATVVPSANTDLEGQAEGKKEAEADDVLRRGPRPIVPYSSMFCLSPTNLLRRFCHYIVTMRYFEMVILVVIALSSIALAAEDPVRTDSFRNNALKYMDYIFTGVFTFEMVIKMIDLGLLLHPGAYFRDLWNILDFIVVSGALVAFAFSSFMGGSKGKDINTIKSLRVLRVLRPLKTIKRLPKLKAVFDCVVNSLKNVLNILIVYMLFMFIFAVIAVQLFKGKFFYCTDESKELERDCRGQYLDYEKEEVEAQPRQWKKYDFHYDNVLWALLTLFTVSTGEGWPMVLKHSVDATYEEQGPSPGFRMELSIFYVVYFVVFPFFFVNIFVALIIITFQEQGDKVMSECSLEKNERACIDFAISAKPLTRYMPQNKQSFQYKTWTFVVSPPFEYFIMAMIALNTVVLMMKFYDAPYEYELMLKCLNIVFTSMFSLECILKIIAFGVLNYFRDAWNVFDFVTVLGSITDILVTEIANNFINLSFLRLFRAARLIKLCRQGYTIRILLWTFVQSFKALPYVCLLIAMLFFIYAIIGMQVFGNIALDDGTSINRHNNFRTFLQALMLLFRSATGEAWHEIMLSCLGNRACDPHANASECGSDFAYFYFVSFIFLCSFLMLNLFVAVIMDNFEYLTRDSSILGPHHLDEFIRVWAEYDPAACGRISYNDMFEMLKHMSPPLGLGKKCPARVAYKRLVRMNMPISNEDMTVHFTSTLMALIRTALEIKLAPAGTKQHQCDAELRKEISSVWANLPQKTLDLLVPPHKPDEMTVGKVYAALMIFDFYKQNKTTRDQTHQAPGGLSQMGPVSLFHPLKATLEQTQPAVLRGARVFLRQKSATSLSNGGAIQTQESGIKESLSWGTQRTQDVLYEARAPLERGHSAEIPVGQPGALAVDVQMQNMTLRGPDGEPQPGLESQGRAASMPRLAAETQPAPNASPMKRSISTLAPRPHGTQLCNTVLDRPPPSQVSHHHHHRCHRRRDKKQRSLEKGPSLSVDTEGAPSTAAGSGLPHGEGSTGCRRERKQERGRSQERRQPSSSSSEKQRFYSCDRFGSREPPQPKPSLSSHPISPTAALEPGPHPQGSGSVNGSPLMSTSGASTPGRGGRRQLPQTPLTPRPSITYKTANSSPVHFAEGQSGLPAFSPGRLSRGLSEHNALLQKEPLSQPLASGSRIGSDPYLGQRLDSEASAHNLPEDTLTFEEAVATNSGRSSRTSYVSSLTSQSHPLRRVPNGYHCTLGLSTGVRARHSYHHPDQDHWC
N-type VGCCs in rat brain membranes (rat), sequence (Q02294 whole entry): as above
N-type VGCCs controlling excitatory synaptic transmission between primary afferents and dorsal horn (rat), sequence (Q02294 whole entry): as above
N-type VGCCs controlling excitatory synaptic transmission between primary afferents and dorsal horn (rat), Q02294, sequence (Q02294 whole entry): as above

ω-conotoxin CVIE (peptide): in assay [1], the EPSC amplitude recovered 10-15 min after washout, percent of control came out at 78%. In assay [2], this molecule gave an affinity of 37 µM and a pIC50 of 10.7 M.

B1: ω-conotoxin CVIF (peptide)
peptide: CKGKGASCRRTSYDCCTGSCRSGRC
modifications: not checked
On to B1, for which the EPSC amplitude recovered 10-15 min after washout, percent of control in assay [3] came to 73%. In assay [4], this molecule came in with an affinity of 98 µM and a pIC50 of 10.6 M.

B2: ω-conotoxin GVIA, P01522 46-72 (peptide)
peptide: CKSPGSSCSPTSYNCCRSCNPYTKRCY
modifications: not checked
In assay [4], B2 gave an affinity of 24 µM and a pIC50 of 10.6 M.

B3: ω-conotoxin CVID, P58920 46-72 (peptide)
peptide: CKSKGAKCSKLMYDCCSGSCSGTVGRC
modifications: not checked
In assay [4], B3 had an affinity of 12 µM and a pIC50 of 11 M.
